B1: Azoarcus group I ribozyme (parent)
chain: GUGCCUUGCGCCGGGAAACCACGCAAGGGAUGGUGUCAAAUUCGGCGAAACCUAAGCGCCCGCCCGGGCGUAUGGCAACGCCGAGCCAAGCUUCGGCGCCUGCGCCGAUGAAGGUGUAGAGACUAGACGGCACCCACCUAAGGCAAACGCUAUGGUGAAGGCAUAGUCCAGGGAGUGGCGAAAGUCACACAAACCGG

This data set covers variants of B1. Description: reverse-splicing fitness (ratio to wild type); higher = more active; in vitro selection; Mg2+ level not given. An outline of the steps: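 An in vitro group I ribozyme library with randomized positions was T7-transcribed and gel-purified. In triplicate, 10 pmol RNA in EPPS pH 7.5 was reacted with 50 pmoles of a 30-nt RNA substrate for 1 h at 37 °C across several added MgCl2 levels (1–48 mM), then stopped with EDTA. Products were reverse transcribed from a substrate-complementary primer, PCR-amplified and sequenced (HiSeq 4000). Fitness is a variant's read proportion after selection over that before, normalised to wild type.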
Consider A120C A145C C150G C169U U176G, for which the reverse-splicing fitness stood at 0.0043. Consider A111U A120U A145C C150U C169A U176A, for which the reverse-splicing fitness worked out at 0.00251. On to C82G A120G A145G C150U C169G U176A, for which the reverse-splicing fitness amounted to 0.0169. On to C82G A111C A120G A145U C150G C169U U176C, for which the reverse-splicing fitness was found to be 0.0118. The value for A111G A120U C150G C169A U176A was 0.00453. Take C82U A111U C150A: the reverse-splicing fitness stood at 0.031. The value for A111C A120C A145C C150G C169A U176G was 0.00595; that for A111C A120C A145C C150G C169A U176A was 0.0076; that for C82U A120C A145C C150A C169G U176G was 0.00448. Consider C82U A111C A120U A145G C150U, for which the reverse-splicing fitness is 0.0233. In the case of C82A A111C A120U A145C C150G C169U U176A, the reverse-splicing fitness came out at 0.00398. With A111C A120G A145U, the reverse-splicing fitness worked out at 0.179. Regarding C82U A111U A120C A145C C169A, the reverse-splicing fitness stood at 0.0065.

A111C A120U A145G C150A C169U U176G: the reverse-splicing fitness stood at 0.00263.

With C82G A111C A120U A145U C169G U176G, the reverse-splicing fitness was 0.00162. In the case of A111C A120G A145C C150A U176G, the reverse-splicing fitness came out at 0.00357. The value for A120U A145G C150U C169G was 0.199; that for C82A A111C A120C A145G C150U U176A was 0.0119. Take C82A A111G A120C A145C C150U C169G: the reverse-splicing fitness amounted to 0.00854. As to A120U A145C U176A, the reverse-splicing fitness was 0.634. Consider C82U A111U A145G C150G C169U, for which the reverse-splicing fitness worked out at 0.00863.

Regarding C82G A111G A120U A145G C150G C169A U176G, the reverse-splicing fitness was determined as 0.00448. To C82G A111U A145C C150G C169U U176A belongs 0.00891; to C82G A111U A120G C150A C169G U176C, 0.0245. Regarding A111C A120C C169A U176G, the reverse-splicing fitness was 0.00631. To C82G A111C A120U A145C C150A C169G U176A belongs 0.00319; to C82A A111U A120U A145G C150U U176G, 0.00393; to A111C A120C A145U C150U C169A U176C, 0.00838. Consider C82A A111C A120U A145C C150U C169U, for which the reverse-splicing fitness came to 0.00379. Turning to C82G A111C A120G C150G C169A U176G, the reverse-splicing fitness was determined as 0.00686.

As to C82A A111G A120U C169A U176C, the reverse-splicing fitness is 0.00316. As for C82G A111G A145U C150U C169A U176C, the reverse-splicing fitness is 0.0132. Consider C82G A111U A120U A145C C150G, for which the reverse-splicing fitness was found to be 0.00763. C82U A111U C150G C169A U176C: the reverse-splicing fitness stood at 0.00895. To C82A A111U A120U C150U C169A belongs 0.00594; to C82G A120C A145G C150G C169G U176A, 0.0134. On to C82U A111G A120C C150G C169G U176G, for which the reverse-splicing fitness was found to be 0.00467.

With C82G A111C C169A, the reverse-splicing fitness came out at 0.00871. Take C82A A111U A120G A145U C150A C169G: the reverse-splicing fitness stood at 0.00859.

Turning to C82A A111C A120U C150G C169A U176A, the reverse-splicing fitness amounted to 0.00579. For the variant C82G A111G A145G C150A U176C, the reverse-splicing fitness was determined as 0.051. For the variant C82U A111G A120C, the reverse-splicing fitness amounted to 0.0555. For the variant C82A A120G A145C C150A C169G U176A, the reverse-splicing fitness was determined as 0.0238. Regarding C82U A111G A120G C150U C169G, the reverse-splicing fitness was determined as 0.0104. For the variant C82U A120U A145C C150U U176A, the reverse-splicing fitness is 0.0114.

As to C82G A111U C169A U176G, the reverse-splicing fitness turned out to be 0.00627.

In the case of C82A A120U A145C C169A, the reverse-splicing fitness came to 0.00194. The value for C82A A111C A120G A145U C150G C169A U176G was 0.00558; that for A111U A120G C150A was 0.02; that for C82A A111U A145U C150A C169G U176A was 0.0157.

A111U A120U A145C C169U U176G: the reverse-splicing fitness amounted to 0.00245.

For C82G A111G A120C A145G C150A C169U, the reverse-splicing fitness was 0.0118. In the case of C82G A120C C150A C169U U176C, the reverse-splicing fitness amounted to 0.0182. C82G A111C A120C C150A C169G U176A: the reverse-splicing fitness stood at 0.0183.

For C82A A120G C169U U176C, the reverse-splicing fitness was 0.0175. C82G A111G A145G C150U C169A U176C: the reverse-splicing fitness is 0.0189.

For C82U A111C U176C, the reverse-splicing fitness was determined as 0.104. To C82U A145C C150G C169U belongs 0.00824. With A111C C150G C169U U176A, the reverse-splicing fitness was found to be 0.00732. For the variant C82A A111G A145G C169U U176C, the reverse-splicing fitness turned out to be 0.0149. C82A A111U A120G: the reverse-splicing fitness came out at 0.0152. On to C82G A111C C169G U176A, for which the reverse-splicing fitness is 0.0182. The value for C82U A120G A145U C169G U176A was 0.0111; that for C82U A111U A120U A145G C150U C169G U176G was 0.00243; that for C82A C169G was 0.00961. In the case of C82A A111G A145C C150U C169A, the reverse-splicing fitness is 0.00814. The value for A111C A120U A145G C150U C169U U176A was 0.0118; that for C82G A120U A145G U176C was 0.11; that for A111G C150A C169G U176C was 0.0218. With C82A A145C C150U C169U U176G, the reverse-splicing fitness turned out to be 0.00481. C82A A111U C150G: the reverse-splicing fitness is 0.0198. Consider C82G A111G A120C A145G C150A C169U U176A, for which the reverse-splicing fitness worked out at 0.0153.

Regarding C82A A111G A120C A145C C150A C169A U176C, the reverse-splicing fitness worked out at 0.0105.

C82A A111C A120U A145U C150G C169U: the reverse-splicing fitness was determined as 0.00325.

Turning to C82A A111C A120G U176G, the reverse-splicing fitness was determined as 0.00584.

Regarding C82U A120U C150A C169G U176A, the reverse-splicing fitness is 0.00443. As for A111U A120G A145C C169G U176G, the reverse-splicing fitness came to 0.00442. Regarding C82U A111C A120U A145C C150G C169G, the reverse-splicing fitness worked out at 0.00351. Take C82U A120C A145C C169A U176G: the reverse-splicing fitness stood at 0.00299.

For the variant A120C C150G, the reverse-splicing fitness is 0.187.

C82U A111C A120U A145U U176C: the reverse-splicing fitness was found to be 0.0113. For the variant C82U A120U C150A C169A U176G, the reverse-splicing fitness is 0.00199. Turning to A111G A120U C150G C169U U176A, the reverse-splicing fitness worked out at 0.00346.
